Measured values: article PMC3099712 (The Journal of Biological Chemistry, 2011)

What was measured:
[1] = biological target: the molecule itself; assay: SDS-PAGE under reducing and non-reducing conditions
[2] = biological target: T1, mouse IGFLR1-Fc (extracellular domain of mouse IGFLR1 fused to human IgG1 Fc) (mouse, UniProt Q3U4N7 21-158); assay: SPR
T1 sequence (looked up): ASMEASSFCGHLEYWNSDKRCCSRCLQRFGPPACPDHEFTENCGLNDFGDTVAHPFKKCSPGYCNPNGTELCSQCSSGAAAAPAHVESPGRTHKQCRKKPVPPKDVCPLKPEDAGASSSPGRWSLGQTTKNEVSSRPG

B1: FLAG-IGFL1 (human insulin growth factor-like family member 1) (ligand)
chain: GAPVAPMTPYLMLCQPHKRCGDKFYDPLQHCCYDDAVVPLARTQTCGNCTFRVCFEQCCPWTFMVKLINQNCDSARTSDDRLCRSVS
binding result [1]: binds

B2: FLAG-mIGFL (mouse insulin growth factor-like protein) (ligand)
chain: ARKISTFSGPGSWPCNPKCDGRTYNPSEECCVHDTILPFKRINLCGPSCTYRPCFELCCPESYSPKKKFIVKLKVHGERSHCSSSPISRNCKSNKIFHGEDIEDNQLSLRKKSGDQP
Kd [2]: 0.15 nM
koff [2]: 0.000157 s⁻¹
kon [2]: 1.02e+06 M⁻¹ s⁻¹
binding result [1]: binds
